Data taken from PMC6327041, “Histone H3 binding to the PHD1 domain of histone demethylase KDM5A enables active site remodeling” (Nature Communications, 2019).
Positions count from the first letter of the chain named. Numbers in names are those of the source. Where no end group is shown, it is not given here. 5‑FAM = 5-carboxyfluorescein; Me3 = trimethyl-lysine

Experiments:
Conditions in all cases: both partners purified
[1] = biological target: T1, GST-PHD1 (V291-K347) of KDM5A (human, UniProt P29375 291-347); assay: fluorescence polarisation; competition-based FP: 2 µM GST-PHD1 with 10 nM C-terminal fluorescently labeled H3 peptide and different concentrations of unlabeled competitor peptide
T1 construct: PHD1 domain of histone demethylase KDM5A, human, residues V291-K347; Cloned into pET41a; the vector may add further tags (surmise); also called V291-K347 PHD1; PHD1_(KDM5A); source: E. coli BL21(DE3), purified (Glutathione Sepharose 4B, Superdex 75 SEC); not shown: GST, N-terminal, kept
T1 sequence (looked up): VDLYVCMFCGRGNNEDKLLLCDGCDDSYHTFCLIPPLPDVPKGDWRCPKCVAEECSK

[2] = biological target: T2, GST-PHD1 (S287-K347) D292A of KDM5A (human, UniProt P29375 287-347, D292A); assay: as above
T2 construct: PHD1 domain of histone demethylase KDM5A, human, residues S287-K347 with D292A; Cloned into pET41a; the vector may add further tags (surmise); also called S287-K347 PHD1 D292A; PHD1 D292A; source: E. coli BL21(DE3), purified (Glutathione Sepharose 4B, Superdex 75 SEC); not shown: GST, N-terminal, kept
T2 sequence (looked up): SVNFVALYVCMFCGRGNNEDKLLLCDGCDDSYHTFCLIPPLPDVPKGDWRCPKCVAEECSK

[3] = biological target: T3, GST-PHD1 (S287-K347) of KDM5A (human, UniProt P29375 287-347); assay: as above
T3 construct: PHD1 domain of histone demethylase KDM5A, human, residues S287-K347; Cloned into pET41a; the vector may add further tags (surmise); also called S287-K347 PHD1; GST-PHD1 (Ser287-Lys347); source: E. coli BL21(DE3), purified (Glutathione Sepharose 4B, Superdex 75 SEC); not shown: GST, N-terminal, kept
T3 sequence (looked up): T2 sequence (looked up) with A6D

[4] = biological target: T1, GST-PHD1 (V291-K347) of KDM5A; assay: fluorescence polarisation; direct FP: 10 nM C-terminal fluorescently labeled H3 peptide with varying concentrations of GST-PHD1
[5] = biological target: T2, GST-PHD1 (S287-K347) D292A of KDM5A; assay: as above
[6] = biological target: T3, GST-PHD1 (S287-K347) of KDM5A; assay: as above
KDM5A_(1-797) = biological target: T4, KDM5A_(1-797) (human, UniProt P29375 1-797); assay: HDX-MS; KDM5A_(1-797) with 50 µM FeSO4 and 100 µM N-OG, with 100 µM H3 10mer effector peptide against apo; 40 mM HEPES, 50 mM KCl, pH 7.9, 4 °C
T4 construct: histone demethylase KDM5A, human, residues 1-797; Cloned into pFASTBAC HTA; the His tag was removed with TEV protease; also called WT KDM5A_(1-797); KMD5A; source: Sf21 (baculovirus), purified (cobalt resin, TEV cleavage, S200 SEC); not shown: His tag, N-terminal, cleaved
T4 sequence (looked up): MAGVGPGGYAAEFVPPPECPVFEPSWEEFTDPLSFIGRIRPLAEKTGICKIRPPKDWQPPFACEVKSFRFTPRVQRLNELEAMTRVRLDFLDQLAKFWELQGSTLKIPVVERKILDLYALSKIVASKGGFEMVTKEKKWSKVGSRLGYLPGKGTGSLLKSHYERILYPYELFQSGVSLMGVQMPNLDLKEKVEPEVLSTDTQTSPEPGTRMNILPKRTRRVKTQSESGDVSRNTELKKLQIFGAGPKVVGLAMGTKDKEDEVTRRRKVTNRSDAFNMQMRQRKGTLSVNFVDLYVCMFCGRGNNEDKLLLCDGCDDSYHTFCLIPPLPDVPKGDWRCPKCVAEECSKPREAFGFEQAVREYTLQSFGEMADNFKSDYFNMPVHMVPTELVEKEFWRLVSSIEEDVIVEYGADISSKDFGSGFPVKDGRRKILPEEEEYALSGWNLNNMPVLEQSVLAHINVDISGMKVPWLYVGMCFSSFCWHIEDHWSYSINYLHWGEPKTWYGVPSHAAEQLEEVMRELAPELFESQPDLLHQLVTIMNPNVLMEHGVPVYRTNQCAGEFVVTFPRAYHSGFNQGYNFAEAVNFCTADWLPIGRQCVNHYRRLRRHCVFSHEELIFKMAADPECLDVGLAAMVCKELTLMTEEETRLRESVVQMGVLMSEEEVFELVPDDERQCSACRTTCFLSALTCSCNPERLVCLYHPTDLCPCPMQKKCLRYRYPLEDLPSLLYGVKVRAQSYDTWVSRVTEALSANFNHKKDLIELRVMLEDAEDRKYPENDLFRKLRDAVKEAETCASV

B1: H3K4A 10mer peptide (peptide, UniProt P68431 2-11, looked up)
peptide: ARTAQTARKS
notes: histone H3 N-terminal tail, 10mer Ala1-Ser10 with K4A
Kd [1]: 2.11 ± 0.27 µM | Kd [2]: 22.2 ± 5.7 µM | Kd [3]: 1.58 ± 0.19 µM

B2: 5-carboxyfluorescein (5-FAM) conjugated H3 10mer peptide (peptide, UniProt P68431 2-11, looked up)
peptide: ARTKQTARKS-{5‑FAM}
notes: histone H3 N-terminal tail, 10mer Ala1-Ser10, unmodified; also called H3K4me0; C-terminal fluorescently labeled H3 peptide
Kd [4]: 1.89 ± 0.16 µM | Kd [5]: 5.2 ± 0.26 µM | Kd [6]: 0.68 ± 0.04 µM

B3: H3K4me3 10mer peptide (peptide, UniProt P68431 2-11, looked up)
peptide: ARTK(Me3)QTARKS
notes: histone H3 N-terminal tail, 10mer Ala1-Ser10; also called tri-methylated H3K4 peptide
Kd [1]: 35.5 ± 7.5 µM | Kd [2]: 511 ± 281 µM | Kd [3]: 34 ± 5.5 µM

B4: unmodified H3 10mer effector peptide (H3 Ala1-Ser10) (peptide, UniProt P68431 2-11, looked up)
peptide: ARTKQTARKS
notes: histone H3 N-terminal tail, 10mer Ala1-Ser10, unmodified, unlabelled; also called H3 10mer peptide; PHD1-specific H3 10mer peptide
binding result (KDM5A_(1-797)): binds
